Laboratory results published in publication PMC7526551 (JCI Insight, 2020).

T1: NUPR1 (recombinant, purified) (UniProt O60356 1-82)
T1 chain: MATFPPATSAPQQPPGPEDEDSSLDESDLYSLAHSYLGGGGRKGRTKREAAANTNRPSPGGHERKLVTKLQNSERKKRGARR

B1: importin-α3 (residues 1–520), recombinant (domain or fragment, UniProt O00629 1-520, looked up)
chain: MADNEKLDNQRLKNFKNKGRDLETMRRQRNEVVVELRKNKRDEHLLKRRNVPHEDICEDSDIDGDYRVQNTSLEAIVQNASSDNQGIQLSAVQAARKLLSSDRNPPIDDLIKSGILPILVHCLERDDNPSLQFEAAWALTNIASGTSEQTQAVVQSNAVPLFLRLLHSPHQNVCEQAVWALGNIIGDGPQCRDYVISLGVVKPLLSFISPSIPITFLRNVTWVMVNLCRHKDPPPPMETIQEILPALCVLIHHTDVNILVDTVWALSYLTDAGNEQIQMVIDSGIVPHLVPLLSHQEVKVQTAALRAVGNIVTGTDEQTQVVLNCDALSHFPALLTHPKEKINKEAVWFLSNITAGNQQQVQAVIDANLVPMIIHLLDKGDFGTQKEAAWAISNLTISGRKDQVAYLIQQNVIPPFCNLLTVKDAQVVQVVLDGLSNILKMAEDEAETIGNLIEECGGLEKIEQLQNHENEDIYKLAYEIIDQFFSSDDIDEDPSLVPEAIQGGTFGFNSSANVPTEGFQ
notes: importin-α3 (KPNA4), residues 1–520, codon-optimized synthetic vector (Nzytech); called a 58 kDa protein with 6 tryptophans; also called KPNA4; importin-alpha3; source: final Superdex G200 16/60
B2: NUPR1 (recombinant, purified) (natural protein, UniProt O60356 1-82, looked up)
chain: T1 chain
notes: Nuclear Protein 1 (NUPR1), described as an intrinsically disordered protein of 82 amino acids with two tyrosines (Tyr30, Tyr36); also called Nuclear Protein 1; rNUPR1; source: expressed and purified as described (12)

Key:
[1] = biological target: B2; assay: ITC; importin-α3 (100–110 μM) in the syringe, NUPR1 (5–10 μM) in the calorimetric cell, Tris 50 mM pH 8, 25°C; single binding site model (1:1); settings: both partners purified
[2] = biological target: T1, NUPR1 (recombinant, purified); assay: ITC; 25°C, with ZZW-115
[3] = biological target: B2; assay: ITC; as a3 with ZZW-115 kept constant at 100 μM during the titration; analysed as an apparent quasibinary system and as an exact ternary system; 25°C; settings: both partners purified
[4] = biological target: B1; assay: ITC; importin-α3 (100–110 μM) in the syringe, NUPR1 (5–10 μM) in the calorimetric cell, Tris 50 mM pH 8, 25°C; single binding site model (1:1); settings: both partners purified
[5] = biological target: B1; assay: ITC; as a3 with ZZW-115 kept constant at 100 μM during the titration; analysed as an apparent quasibinary system and as an exact ternary system; 25°C; settings: both partners purified

Row | Binder | dH [1] [kcal/mol] | Ka [2] [M⁻¹] | fold reduction in affinity with 100 μM ZZW-115 (ternary equilibrium analysis) [3] [fold] | Ka [4] [M⁻¹] | Kd [4] [µM] | Kd [5] [µM]
1 | B1 | -13.7 | 28000 | 21 |  |  | 
2 | B2 |  |  |  | 690000 | 1.4 | 35
